Source: PMC11099923

Columns and labels:
α7nAChR (Homo sapiens) = α7nAChR (Homo sapiens) (UniProt P36544); settings: cited from earlier work
[1] = biological target: human α7nAChR deletion mutant Δ419-423, His-tagged (human) (UniProt P36544); assay: pull-down; His-tag α7nAChR (~3 μM) as bait mixed with strep-tag PICK1 PDZ (~10 μM), Ni-NTA resin, overnight at 4°C, 10 mM phosphate pH 7.8, 150 mM NaCl, 0.05% LDAO, two washes with 50 mM imidazole, elution with 500 mM imidazole, SDS-PAGE, band intensities
[2] = biological target: human α7nAChR deletion mutant Δ428-432, His-tagged (human) (UniProt P36544); assay: as above

Substance | Kd (α7nAChR (Homo sapiens)) [nM] | reduction of pulldown compared to WT α7nAChR [1] [%] | reduction of pulldown compared to WT α7nAChR [2] [%]
PICK1 PDZ (from UniProt Q9NRD5) | 3000 | – | –
PDZ domain of human PICK1 (Protein Interacting with C-kinase 1), strep-tagged (from UniProt Q9NRD5 19-110) (domain or fragment) | – | 50 | 85
